In patent US6861578B1, “Method for plant protection against insects or nematodes by transformation with a nucleic acid encoding equistatin” (Plant Research International B.V., priority 1997, dated 2005):

What was measured:
[1] = target: potato protease inhibitor-insensitive cysteine proteases of Colorado potato beetle (Leptinotarsa decemlineata) larval gut extracts; test: cell-based or functional assay
leafminer proteases = test: Protease activity of adult leafminer fly extract, FITC-hemoglobin; type: biochemical, Liriomyza trifolii
Experimental: (§1) Adult western flower thrips (Frankliniella occidentalis) and leafmirer flies (Liriomyza trifolii) adult were harvested from a culture maintained on chrysanthemum plants and complete thrips and flies were homogenized in extraction on buffer (200 mM β-alanine-HCl, pH 3.5) in a volume of 5 times the weight of the insects. The buffer pH was at the previously determined pH optimum of protease activity towards hemoglobin. Final instar Colorado potato beetle larvae maintained on potato plants as described in example 5 were checked for gut aspartic protease activity by preparing a total gut extract in pH 3 buffer which is optimal for Colorado potato beetle aspartic proteases (200 mM glycine, pH 3). Guts were homogenized in 100 μl buffer per gut. Third instar western corn rootworm larvae maintained on corn roots were used to remove the guts. Ten guts were homogenized in 100 μl water and spinned twice to remove insoluble material. Two types of buffers were used in the enzymatic assay. One with a pH presumably favoring cysteine proteases (50 mM MES, pH 6.5; 0.6 mg/ml L-cysteine) and one for detecting aspartic proteases (200 mM glycine, pH 3). Supernatants were stored at −20° C.
(§2) 2 μl gut extract was combined with 2 μl inhibitor (2 mM pepstatin in methanol, 4 mM E64 in water, 2 mg/ml recombinant equistatin in water. The concentration of the other proteinaceous inhibitors was not known exactly). Appropriate buffers were added to a final volume of 100 μl. After 15′ preincubation 20 μl substrate (5 mg/ml FITC-hemoglobin) was added and incubated for 30-45 min at 37 C.
(§3) Reaction was stopped by the addition of 100 μl 10% TCA. Tubes were centrifuged and 100 μl supernatant mixed with 100 μl 10 N NaOH was measured on a fluorimeter for the extent of hemoglobin hydrolysis. Measurements were done in duplicate on one (thrips, leafminer and western corn rootworm), or three (Colorado potato beetle) different gut extracts and varied by a maximum of +/−5%.

[2] = tested on: western corn rootworm cysteine and aspartic protease activity; test: Protease activity of western corn rootworm larval gut extract, FITC-hemoglobin; type: biochemical, Diabrotica virgifera; conditions: recombinant equistatin
Experimental: as §1, §2, §3

thrips protease activity = test: Protease activity of adult western flower thrips extract, FITC-hemoglobin; type: biochemical, Frankliniella occidentalis; design: inhibition of protease activity: concentration or dose not given beside the values
Experimental: as §1, §2, §3

[3] = tested on: Colorado potato beetle proteases; test: Protease activity of Colorado potato beetle larval gut extract at pH 3, FITC-hemoglobin; type: biochemical, Leptinotarsa decemlineata; design: inhibition of total protease activity / increase of inhibition by addition of equistatin to E64 / increase of inhibition by addition of equistatin to pepstatin: concentration or dose not given beside the values
Experimental: as §1, §2, §3

[4] = target: proteases in extracts of adult leafminer flies (Liriomyza trifolii); test: cell-based or functional assay
[5] = tested on: Colorado potato beetle larval gut extracts (potato protease inhibitor-insensitive cysteine proteases); test: General proteolytic activity of Colorado potato beetle larval gut extracts, azocasein; type: biochemical, Leptinotarsa decemlineata
Excerpt: Guts of final instar Colorado potato beetle larvae reared on methyl jasmonate induced plants were isolated and extracted essentially as described (Bolter and Jongsma, J. Insect Physiol. 41: 1071-1078). In these gut extracts the proteases that are sensitive to the protease inhibitors of potato are already complexed. The residual protease activity is composed of potato protease-inhibitor-insensitive proteases which were induced in response to the methyl jasmonate induced potato inhibitors. These proteases are the proteases that render the beetle larvae insensitive to protease inhibitor defense of the potato plant. Wle tested a broad range of different cysteisie protease inhibitors for activity specifically against these induced potato protease inhibitor-insensitive cysteine protesses. Nearly all of these inhibitors were purified at the Jozef Stefan Institute in Slovenia. Testing their potential against Colorado potato beetle was done using both general protein substrates (azocasein, table 2) as well as specific synthetic substrates (L-Arg-pNA, table 3; pGlu-Phe-Leu-pNA, table 4; Z-Phe-Arg-pNA, table 5; Z-Arg-Arg-pNA, table 6). In specific cases inhibitors were tested at two concentrations, eauimolar and in excess to the protease, in order to obtain an indication of the tightness of the complex. […] Importantly, this class of inhibitors was capable of inhibiting nearly all general cysteine protease activity. The equistatin peptide molecule and a functional derivative thereof were not very active against the aminopeptidase-like cysteine protease activity. […] The best combination of inhibitors for full toxicity against the Colorado potato beetle would therefore be a combination of equistatin or p41 invariant chain fragment and stefin-like inhibitors.

soybean cystatin showed a residual general proteolytic activity (azocasein) in excess of inhibitor (% residual activity) [1] of 65.

With “human LMW kininogen (from UniProt P01042 19-427)” the residual general proteolytic activity (azocasein) in excess of inhibitor (% residual activity) [1] was 65.

lens cystatin showed a residual general proteolytic activity (azocasein) in excess of inhibitor (% residual activity) [1] of 60.

`CC(C)C[C@H](NC(=O)[C@H]1O[C@@H]1C(=O)O)C(=O)NCCCCN=C(N)N` (relative stereo) [E64, N-(L-3-trans carboxyoxiran-22-carbomyl)-L-leucyl-amido-4-guani-dobutane, reference compound] was tested, and the “inhibition of protease activity” value (leafminer proteases; leafminer) was 73%, the residual protease activity (leafminer proteases; leafminer pH 3.5, equistatin purified from sea anemone) was 27% and the residual protease activity ([2]; western corn rootworm pH 3) was 35%. The residual protease activity ([2]; western corn rootworm pH 6.5) was 51%, the residual protease activity (thrips protease activity; thrips pH 3.5, equistatin purified from sea anemone) was 8% and the “inhibition of protease activity” value (thrips protease activity; thrips, pH 3.5) was 92%. The “inhibition of total protease activity” value ([3]; Colorado potato beetle, pH3) was 24% and the residual protease activity ([3]; colorado potato beetle pH 3, recombinant equistatin) was 76%.

Chelidonium majus cystatin gave a residual general proteolytic activity (azocasein) in excess of inhibitor (% residual activity) [1] of 100.

Work on cowpea cystatin yielded a residual general proteolytic activity (azocasein) in excess of inhibitor (% residual activity) [1] of 75.

Molecule bovine kininogen has a residual general proteolytic activity (azocasein) in excess of inhibitor (% residual activity) [1] of 110.

Work on “porcine stefin D2 (from UniProt P80736 1-35)” yielded a residual general proteolytic activity (azocasein) in excess of inhibitor (% residual activity) [1] of 105.

“Recombinant human stefin A (from UniProt P01040 1-98)” gave a residual amino-peptidase activity (L-Arg-pNA), equimolar inhibitor (% of residual activity) [1] of 60, a residual amino-peptidase activity (L-Arg-pNA), excess inhibitor (% of residual activity) [1] of 10 and a residual broad spectrum endoprotease activity (Z-Phe-Arg-pNA), equimolar inhibitor (% of residual activity) [1] of 95. It also gave a residual broad spectrum endoprotease activity (Z-Phe-Arg-pNA), excess inhibitor (% of residual activity) [1] of 80, a residual general proteolytic activity (azocasein) in excess of inhibitor (% residual activity) [1] of 90 and a residual narrow spectrum endoprotease activity (Z-Arg-Arg-pNA), excess inhibitor (% of residual activity) [1] of 90. For the same molecule, the residual tri-peptidil-peptidase and endoprotease activity (pGlu-Phe-Leu-pNA), equimolar inhibitor (% of residual activity) [1] was 95 and the residual tri-peptidil-peptidase and endoprotease activity (pGlu-Phe-Leu-pNA), excess inhibitor (% of residual activity) [1] was 90.

For bromelain inhibitor, the residual general proteolytic activity (azocasein) in excess of inhibitor (% residual activity) [1] was 110.

“human kininogen 3rd domain (from UniProt P01042 273-376)” gave a residual general proteolytic activity (azocasein) in excess of inhibitor (% residual activity) [1] of 20.

With PCPI 6.6 the residual general proteolytic activity (azocasein) in excess of inhibitor (% residual activity) [1] was 120.

In the case of “Aspartic protease inhibitor (API) purified from potato”, the residual protease activity (FITC-hemoglobin), pH 3.5 (% residual activity) [4] is reported as 37.

With “Recombinant potato cystatin (p.cystatin), a monomer of multicystatin expressed as a fusion protein with glutathione-S-transferase” the residual protease activity (FITC-hemoglobin), pH 3.5 (% residual activity) [4] was 73.

B1: potato multicystatin (protein, UniProt P37842 1-756, looked up)
chain: MAIVGGLVDVPFENKVEFDDLARFAVQDYNQKNDSSLEFKKVLNVKQQIVAGIMYYITFEATEGGNKKEYEAKILLRKWEDLKKVVGFKLVGDDSTMPGGIVNVPNPNNTKFQELARFAIQDYNKKQNAHLEFVENLNVKEQVVAGIMYYITLAATDDAGKKKIYKAKIWVKEWEDFKKVVEFKLVGDDIAKLGGITDVPFPNNPEFQDLARFAIQVYNKKENVHLEFVENLNVKQQVVAGMMYYITLAAIDAGKKKIYETKIWVKEWEDFKKVVEFKLVGDDSAKTGGIINVPNPNSPEFQDLARFAVQDYNNTQNAHLEFVENLNVKEQLVSGMMYYITLAATDAGNKKEYEAKIWVKEWEDFKKVIDFKLVGNDSAKKLGGFTEVPFPNSPEFQDLTRFAVHQYNKDQNAHLEFVENLNVKKQVVAGMLYYITFAATDGGKKKIYETKIWVKVWENFKKVVEFKLVGDDSAKLGGIINVPFPNNPEFQDLARFAVQDYNKKENAHLEFVENLNVKEQLVAGMLYYITLVAIDAGKKKIYEAKIWVKEWENFKKVIEFKLIGDDSAIIGGFTDVPFPNNPEFQDLARFAVQDYNKKENAHLEYVENLNVKEQLVAGMIYYITLVATDAGKKKIYEAKIWVKEWEDFKKVVEFKLVGDDSAKPGGIIIVPFPNSPEFQDLARFAVQDFNKKENGHLEFVENLNVKEQVVAGMMYYITLAATDARKKEIYETKILVKEWENFKEVQEFKLVGDATK
In the case of B1, the “Residual activity in excess of inhibitor” value [5] is reported as 90% and the residual general proteolytic activity (azocasein) in excess of inhibitor (% residual activity) [1] is reported as 90.

B2: human cystatin c (protein, UniProt P01034 27-146, looked up)
chain: SSPGKPPRLVGGPMDASVEEEGVRRALDFAVGEYNKASNDMYHSRALQVVRARKQIVAGVNYFLDVELGRTTCTKTQPNLDNCPFHDQPHLKRKAFCSFQIYAVPWQGTMTLSKSTCQDA
In the case of B2, the “Residual activity in excess of inhibitor” value [5] is reported as 105% and the residual general proteolytic activity (azocasein) in excess of inhibitor (% residual activity) [1] is reported as 105.

B3: bovine kininogen: Type III cystatin (protein, UniProt P01044 19-621, looked up)
Kininogen-1: QESSQEIDCNDQDVFKAVDAALTKYNSENKSGNQFVLYRITEVARMDNPDTFYSLKYQIKEGDCPFQSNKTWQDCDYKDSAQAATGECTATVAKRGNMKFSVAIQTCLITPAEGPVVTAQYECLGCVHPISTKSPDLEPVLRYAIQYFNNNTSHSHLFDLKEVKRAQRQVVSGWNYEVNYSIAQTNCSKEEFSFLTPDCKSLSSGDTGECTDKAHVDVKLRISSFSQKCDLYPVKDFVQPPTRLCAGCPKPIPVDSPDLEEPLSHSIAKLNAEHDGAFYFKIDTVKKATVQVVAGLKYSIVFIARETTCSKGSNEELTKSCEINIHGQILHCDANVYVVPWEEKVYPTVNCQPLGQTSLMKRPPGFSPFRSVQVMKTEGSTTVSLPHSAMSPVQDEERDSGKEQGPTHGHGWDHGKQIKLHGLGLGHKHKHDQGHGHHGSHGLGHGHQKQHGLGHGHKHGHGHGKHKNKGKNNGKHYDWRTPYLASSYEDSTTSSAQTQEKTEETTLSSLAQPGVAITFPDFQDSDLIATVMPNTLPPHTESDDDWIPDIQTEPNSLAFKLISDFPETTSPKCPSRPWKPVNGVNPTVEMKESHDFDLVDALL
With B3 the “Residual activity in excess of inhibitor” value [5] was 110%.

B4: porcine stefin D1 (protein, UniProt P35479 1-103, looked up)
chain: MESEEMLAGGLTEPRPATPEIQEIANKVKPQLEEKTNKTYEKFEAIIYRSQVVAGTNYYIKVHVGGNNYVHIRVFQSLPHQEDPLKLIGYQVDKTKDDELTGF
With B4 the residual general proteolytic activity (azocasein) in excess of inhibitor (% residual activity) [1] was 105.

B5: rat stefin A (protein, UniProt P01039 1-103, looked up)
chain: MDPGTTGIVGGVSEAKPATPEIQEVADKVKRQLEEKTNEKYEKFKVVEYKSQVVAGQILFMKVDVGNGRFLHMKVLRGLSGDDDLKLLDYQTNKTKNDELTDF
B5 was tested, and the residual general proteolytic activity (azocasein) in excess of inhibitor (% residual activity) [1] was 90.

B6: porcine stefin B (protein, UniProt Q29290 1-98, looked up)
chain: MMCGAPSATQPATAEIQAIADKVKSQLEEKENKTFPVFKAVEFKSQVVAGRNLFIKVQVDDDDFVHLRVFESLPHENKPLTLSSYQTNKSRHDELTYF
With B6 the “Residual activity in excess of inhibitor” value [5] was 100% and the residual general proteolytic activity (azocasein) in excess of inhibitor (% residual activity) [1] was 100.

B7: chicken cystatin (protein, UniProt P01038 24-139, looked up)
chain: SEDRSRLLGAPVPVDENDEGLQRALQFAMAEYNRASNDKYSSRVVRVISAKRQLVSGIKYILQVEIGRTTCPKSSGDLQSCEFHDEPEMAKYTTCTFVVYSIPWLNQIKLLESKCQ
With B7 the “Residual activity in excess of inhibitor” value [5] was 105% and the residual general proteolytic activity (azocasein) in excess of inhibitor (% residual activity) [1] was 105.

B8: Recombinant Kunitz PCPI8.3 (produced in Pichia pastoris) (protein, potato, UniProt P20347 43-222, looked up)
chain: LVLPEVYDQDGNPLRIGERYIINNPLLGAGAVYLYNIGNLQCPNAVLQHMSIPQFLGEGTPVVFVRKSESDYGDVVRVMTVVYIKFFVKTTKLCVDQTVWKVNDEQLVVTGGKVGNENDIFKIMKTDLVTPGGSKYVYKLLHCPSHLGCKNIGGNFKNGYPRLVTVDDDKDFIPFVFIKA
In the case of B8, the residual protease activity (FITC-hemoglobin), pH 3.5 (% residual activity) [4] is reported as 43.
